Target: West Nile virus strain USA99b (strain 385-99), whole virus (West Nile virus strain 385-99 (USA99b))
Assay: ELISA on irradiated WNV; antibody at 20.000 µg/ml

Q: With “anti-rabies virus antibody (negative control)” as the substance, how does the OD 492nm read?
A: The OD 492nm was 0.051 OD 492nm.

Source: patent publication EP1828247B1
